Data from publication PMC8167299, “Cardio- and reno-protective effects of dipeptidyl peptidase III in diabetic mice” (The Journal of Biological Chemistry, 2021).
Each block holds one molecule with its values, some of them ahead of it. Where no end group is shown, it is not given here.

Assays:
[1] = test system: U937 macrophage-like cells on a monolayer of HUVECs; assay: Transmigration assay of U937 cells across a HUVEC monolayer (Transwell); assay type: cell-based, human; details: presence of PKC inhibitor vs DMSO
Experimental: The upper inserts (5.0 μm pore size) of Chemotaxicells (Kurabo Industries, Ltd) were coated with 100 μg fibronectin (Sigma-Aldrich). HUVECs were seeded on the insert and cultured for 48 h to form an endothelial monolayer. […] The number of U937 cells that migrated into the lower wells was counted using the Counting chamber (ERMA Inc).

RhoA = assay: Pull-down assay for GTP-bound active RhoA in HUVECs; assay type: cell-based, human; details: presence of PKC inhibitor vs DMSO
Experimental: These experiments were performed as described previously with some modifications ([70]). Briefly, total cell lysates were obtained using the RIPA lysis buffer (50 mmol/l Tris-HCl [pH 7.5], 150 mmol/l NaCl, 0.5% deoxycholate sodium, 0.1% SDS, 1% Nonidet P-40, and 100 mM PMSF). The samples were separated by SDS-PAGE and blotted on a polyvinylidene difluoride membrane. The membrane was sequentially incubated with primary Ab and horseradish peroxidase (HRP)-labeled secondary Ab, followed by treatment with HRP substrate (Luminata Forte, Millipore Corp). The target protein band was observed using the luminescent image analyzer LAS-4000 (Fujifilm Life Science). The pull-down assay was performed as described previously with some modifications ([71]). Briefly, the cell lysates were incubated with glutathione S-transferase-fused mDia Rho-binding domain and glutathione-sepharose beads (GE Healthcare) at 2 °C to collect active GTP-bound RhoA.

SGLT2 = details: cited from earlier work
Description: DM patients have a high mortality rate, mainly due to DM-related heart and/or kidney failure ([35], [43]). Pathologically, heart dysfunction exacerbates kidney damage, while renal injury negatively affects cardiac function. […] To reduce diabetic complications in tissues and organs, particularly in the heart and kidney, great effort has been made to develop effective medicines and therapeutics for DM. Among these, much attention ...

C3a receptor (C3aR) = target: T1, C3a receptor (C3aR) (Homo sapiens, UniProt Q16581); assay: Cell surface attachment of FITC-Peptide 2 on HUVECs through C3aR; assay type: binding; details: C3aR-knockdown (siC3aR #2) vs scramble RNA-transfected HUVECs; 2 h at 4 °C
T1 construct: host or cells: HUVECs
T1 sequence (Q16581 1-482): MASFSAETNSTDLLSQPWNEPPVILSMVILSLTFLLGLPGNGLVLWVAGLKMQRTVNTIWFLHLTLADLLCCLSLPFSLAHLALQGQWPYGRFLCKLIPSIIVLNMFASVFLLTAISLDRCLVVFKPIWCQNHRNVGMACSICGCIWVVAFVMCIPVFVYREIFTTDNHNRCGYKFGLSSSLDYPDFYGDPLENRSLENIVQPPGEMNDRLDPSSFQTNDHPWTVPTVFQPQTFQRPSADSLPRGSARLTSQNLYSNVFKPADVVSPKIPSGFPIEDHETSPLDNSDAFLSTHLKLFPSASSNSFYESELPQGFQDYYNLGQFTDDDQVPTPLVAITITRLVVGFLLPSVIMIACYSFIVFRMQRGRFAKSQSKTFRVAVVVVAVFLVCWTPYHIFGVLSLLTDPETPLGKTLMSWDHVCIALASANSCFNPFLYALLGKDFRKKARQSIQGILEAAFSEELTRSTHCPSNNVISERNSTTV
Experimental: The expression level of C3a receptor 1 (C3aR) was evaluated by semiquantitative PCR. mRNA was extracted using TRIzol RNA isolation reagent (Thermo Fisher Scientific), and cDNA was synthesized using ReverTra Ace (Toyobo). PCR was performed using rTaq DNA polymerase (TaKaRa Bio Inc). The band densities of PCR products were quantified using the ImageJ software. The mRNA expression level of C3aR was adjusted to that of β-actin as an internal control. Primer sequences for the experiments were as follows: C3aR forward 5′-[…]-3′ and reverse 5′-[…]-3′; β-actin forward 5′-[…]-3′ and reverse 5′-[…]-3′. To silence C3aR expression in HUVECs, siRNA against C3aR (#1: 5′-[…]-3′, #2: 5′-[…]-3′) was transfected into the cells with RNAiMAX (Thermo Fisher Scientific), and the cells were cultured for 2 days.
FITC-conjugated Peptide 2 was generated by Biologica Co. HUVECs, in which C3aR was or was not knocked down, were incubated with the indicated concentrations of FITC-Peptide 2 for 2 h at 4 °C. Subsequently, the cells were washed with PBS three times and labeled with tetramethylrhodamine-WGA (Thermo Fisher Scientific). Following fixation with 4% paraformaldehyde, the attached peptides on the cell surface were observed using a Leica SP8 microscope (Leica Microsystems).

db/m mice = assay: Peptide 2 or control peptide administration for 8 weeks in nondiabetic db/m mice; assay type: in vivo, mouse; details: for Heart rate during echocardiography: db/m mice, isoflurane anesthesia, average ± SD, n= 7
db/db mice [2] = details: mouse, in vivo, iv
Experimental: We examined the in vivo cytotoxicity of Peptide 2 by intravenous injection of this peptide (0.5 μg/g body weight) into mice.
Following euthanasia of the mice by cervical dislocation, they were perfused with PBS, and the heart and kidney were extracted. The extracted organs were snap-frozen in liquid nitrogen within a block of water-soluble medium (Surgipath FSC 22, Leica Biosystems) or fixed with 4% paraformaldehyde and subsequently embedded in paraffin blocks. Regarding the frozen samples, they were sectioned in 10 μm thick using a cryostat (Leica Biosystems), fixed with 4% paraformaldehyde on top of poly-L-lysine-coated slides, permeabilized with 0.1% Triton X-100, and blocked with 1% bovine serum albumin (BSA). Primary antibodies (Abs) (see below) were applied in the BSA blocking solution at 4 °C overnight, followed by 1 h incubation at room temperature with fluorescent dye-labeled secondary Abs. Paraffin sections, 4 μm thick, were stained with H-E, WGA (1:500 dilution) (Thermo Fisher Scientific) or Sirius red (1:1000 dilution) (Fujifilm Wako Pure Chemical Corporation) using standard techniques. Confocal images were taken using a Leica SP8 microscope (Leica Microsystems). […] As described previously ([68]), at least three random fields were selected from the four sections in each heart to quantify the extent of fibrotic or immunopositive area using ImageJ software.

db/db mice [3] = test system: db/db mice
[4] = test system: AngII-stimulated hypertensive mice; details: AngII-stimulated hypertensive vs normotensive mice; cited from earlier work
[5] = nondiabetic db/m mice, 8-week administration
[6] = DPPIII 10 μg/g iv, after 8 weeks
[7] = DPPIII 10 μg/g iv, after 8 weeks, vs PBS

Molecule: Cn1c2ccccc2c2c3c(c4c5ccccc5n(CCC#N)c4c21)CNC3=O [PKC inhibitor, Gö6976]
Effect on Peptide-2-induced U937 transendothelial migration [1]: inhibited in the presence of PKC inhibitor
Effect on Peptide-2-induced RhoA activation (RhoA): inhibited in the presence of PKC inhibitor

Molecule: Cc1ccc([C@@H]2O[C@H](CO)[C@@H](O)[C@H](O)[C@H]2O)cc1Cc1ccc(-c2ccc(F)cc2)s1 [canagliflozin]
Heart failure and DKD in DM patients (SGLT2): improves heart failure and DKD

Molecule: FITC-Peptide 2: fluorescein isothiocyanate (FITC)-conjugated Peptide 2 (RLLWENGNL; also: FITC-conjugated, position not given here)
FITC-Peptide 2 attachment on the cells (fluorescence microscopy) (C3a receptor (C3aR)): significantly reduced in C3aR-knockdown HUVECs

Molecule: IAFSQYLQK [control peptide, reference compound]
Heart rate during echocardiography (db/m mice; week 0): 410 ± 30
Heart rate during echocardiography (db/m mice; week 4): 423 ± 32
Heart rate during echocardiography (db/m mice; week 8): 407 ± 30

Deteriorative effects on the organs (heart and kidney) (db/m mice; [5]): not observed in db/m mice
Desmin deposition and microvasculature disruption in the glomeruli (db/db mice [2]): highly enhanced
Molecule: RLLWENGNL [Peptide 2]
Heart rate during echocardiography (db/m mice; week 0): 417 ± 32
Heart rate during echocardiography (db/m mice; week 4): 402 ± 41
Heart rate during echocardiography (db/m mice; week 8): 414 ± 42
Body weight, blood glucose level, or hemodynamics (db/m mice; [5]): did not affect

B1: dipeptidyl peptidase III (protein, UniProt Q9NY33 2-737, looked up)
Dipeptidyl peptidase 3: ADTQYILPNDIGVSSLDCREAFRLLSPTERLYAYHLSRAAWYGGLAVLLQTSPEAPYIYALLSRLFRAQDPDQLRQHALAEGLTEEEYQAFLVYAAGVYSNMGNYKSFGDTKFVPNLPKEKLERVILGSEAAQQHPEEVRGLWQTCGELMFSLEPRLRHLGLGKEGITTYFSGNCTMEDAKLAQDFLDSQNLSAYNTRLFKEVDGEGKPYYEVRLASVLGSEPSLDSEVTSKLKSYEFRGSPFQVTRGDYAPILQKVVEQLEKAKAYAANSHQGQMLAQYIESFTQGSIEAHKRGSRFWIQDKGPIVESYIGFIESYRDPFGSRGEFEGFVAVVNKAMSAKFERLVASAEQLLKELPWPPTFEKDKFLTPDFTSLDVLTFAGSGIPAGINIPNYDDLRQTEGFKNVSLGNVLAVAYATQREKLTFLEEDDKDLYILWKGPSFDVQVGLHELLGHGSGKLFVQDEKGAFNFDQETVINPETGEQIQSWYRSGETWDSKFSTIASSYEECRAESVGLYLCLHPQVLEIFGFEGADAEDVIYVNWLNMVRAGLLALEFYTPEAFNWRQAHMQARFVILRVLLEAGEGLVTITPTTGSDGRPDARVRLDRSKIRSVGKPALERFLRRLQVLKSTGDVAGGRALYEGYATVTDAPPECFLTLRDTVLLRKESRKLIVQPNTRLEGSDVQLLEYEASAAGLIRSFSERFPEDGPELEEILTQLATADARFWKGPSEAPSGQA
notes: aminopeptidase that cleaves specific dipeptides from the N terminus of relatively small peptides
Body weight and blood glucose level (increase during the experimental period) (db/db mice [3]; DPPIII 10 μg/g body weight iv three times weekly for 8 weeks, vs PBS): unaffected by DPPIII treatment
Left ventricular dimensions and systolic functions (echocardiography) (db/db mice [3]; DPPIII 10 μg/g iv, 8 weeks): not significantly changed
Urine albumin excretion (albuminuria) (db/db mice [3]; DPPIII 10 μg/g iv, 8 weeks, 24 h urine, SDS-PAGE, Coomassie staining): the increase was blocked by DPPIII treatment
Cardiac diastolic functions (pulse-wave and tissue Doppler echocardiography) (db/db mice [3]; DPPIII 10 μg/g iv, 8 weeks, vs PBS): improved the impaired diastolic functions
Desmin deposition in the glomeruli (db/db mice [3]; [6]): almost totally reversed by DPPIII treatment
Disruption of glomerular microvasculature (CD31 staining) (db/db mice [3]; [6]): recovered
Morphology and size of cardiomyocytes (H-E and WGA staining) (db/db mice [3]; [6]): unchanged by DPPIII treatment
Plasma cholesterol or triglyceride levels (db/db mice [3]; [6]): no effects
Podocyte foot process damage (electron microscopy) (db/db mice [3]; [6]): ameliorated by DPPIII treatment
Cardiac fibrosis (Sirius red staining) (db/db mice [3]; [7]): reduced by DPPIII treatment
Infiltration of CD68-positive inflammatory cells in the heart (db/db mice [3]; [7]): reversed
Plasma concentration of Peptide 2 (SRM) (db/db mice [3]; after 8-week DPPIII administration, vs PBS-infused db/db mice): clearly reduced
Blood-pressure-lowering effect [4]: BP-lowering effects were observed specifically in AngII-stimulated hypertensive mice, but not in normotensive mice
